US8349320

Experiments:
[1] = target: mouse HVEM expressed on cells (mouse) (UniProt Q80WM9); assay: flow cytometry competition, graded soluble gD against 1.4 µg/ml mBTLA-T on mHVEM-HEK293 cells (FIG. 3G)
[2] = target: mouse HVEM-Fc (mouse; human) (UniProt Q80WM9); assay: flow cytometry competition, graded soluble gD against 2 µg/ml mHVEM:Fc on hLIGHT-EL4 cells (FIG. 3G)
mouse HVEM-Fc (mouse; human), sequence (Q80WM9 39-206 limits assumed): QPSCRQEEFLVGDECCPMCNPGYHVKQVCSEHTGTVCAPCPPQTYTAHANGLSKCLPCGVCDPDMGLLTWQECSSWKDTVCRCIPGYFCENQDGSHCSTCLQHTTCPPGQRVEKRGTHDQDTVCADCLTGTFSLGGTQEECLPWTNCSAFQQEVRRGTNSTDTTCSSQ

mouse HVEM expressed on cells (mouse), sequence (Q80WM9 39-275): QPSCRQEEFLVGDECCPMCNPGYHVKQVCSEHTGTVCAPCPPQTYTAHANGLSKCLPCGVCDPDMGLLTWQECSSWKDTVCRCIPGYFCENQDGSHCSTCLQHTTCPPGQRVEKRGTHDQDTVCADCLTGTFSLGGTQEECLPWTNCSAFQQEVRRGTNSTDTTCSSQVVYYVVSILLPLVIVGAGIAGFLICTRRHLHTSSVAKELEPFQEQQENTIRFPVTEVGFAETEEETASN

Substance: purified recombinant soluble gD (gD-1Δ290-299)
- Kd [1]: 250 nM
- Kd [2]: 250 nM
